According to patent US20240352434, “COMPOSITIONS COMPRISING A VARIANT CAS12I3 POLYPEPTIDE AND USES THEREOF” (Arbor Biotechnologies, Inc., published 2024):

T1: Cas12i3 S559R (Unidentified, S559R)
T1 chain: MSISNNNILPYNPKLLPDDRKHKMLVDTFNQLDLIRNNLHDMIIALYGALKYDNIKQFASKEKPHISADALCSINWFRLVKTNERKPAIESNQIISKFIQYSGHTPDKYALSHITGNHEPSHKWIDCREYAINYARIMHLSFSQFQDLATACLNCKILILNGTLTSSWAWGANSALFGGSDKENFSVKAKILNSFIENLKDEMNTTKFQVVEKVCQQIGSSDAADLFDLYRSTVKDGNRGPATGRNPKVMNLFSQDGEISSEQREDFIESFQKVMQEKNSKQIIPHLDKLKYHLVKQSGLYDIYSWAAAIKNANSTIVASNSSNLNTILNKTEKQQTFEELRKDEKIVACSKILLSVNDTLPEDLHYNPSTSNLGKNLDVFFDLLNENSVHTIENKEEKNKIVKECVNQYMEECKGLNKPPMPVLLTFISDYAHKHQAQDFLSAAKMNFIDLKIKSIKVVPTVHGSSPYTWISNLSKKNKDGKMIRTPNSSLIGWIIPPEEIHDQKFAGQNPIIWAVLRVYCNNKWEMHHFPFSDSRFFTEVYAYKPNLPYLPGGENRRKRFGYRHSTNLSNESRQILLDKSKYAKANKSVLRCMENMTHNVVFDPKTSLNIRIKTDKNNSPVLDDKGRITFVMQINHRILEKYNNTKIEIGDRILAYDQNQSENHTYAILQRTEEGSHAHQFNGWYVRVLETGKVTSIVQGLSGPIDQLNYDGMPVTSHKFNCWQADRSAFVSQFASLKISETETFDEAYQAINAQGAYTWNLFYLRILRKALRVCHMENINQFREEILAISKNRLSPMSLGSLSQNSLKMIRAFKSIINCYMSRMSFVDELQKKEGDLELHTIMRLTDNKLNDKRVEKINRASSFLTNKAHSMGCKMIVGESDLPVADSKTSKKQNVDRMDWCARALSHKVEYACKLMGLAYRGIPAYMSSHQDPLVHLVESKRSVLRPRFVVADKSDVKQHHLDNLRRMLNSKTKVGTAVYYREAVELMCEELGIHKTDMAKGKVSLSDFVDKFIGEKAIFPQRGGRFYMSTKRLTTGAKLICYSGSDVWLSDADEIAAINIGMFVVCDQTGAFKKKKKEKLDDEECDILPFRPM

T2: Cas12i3 K583R N711R C724R (Unidentified, K583R,N711R,C724R)
T2 chain: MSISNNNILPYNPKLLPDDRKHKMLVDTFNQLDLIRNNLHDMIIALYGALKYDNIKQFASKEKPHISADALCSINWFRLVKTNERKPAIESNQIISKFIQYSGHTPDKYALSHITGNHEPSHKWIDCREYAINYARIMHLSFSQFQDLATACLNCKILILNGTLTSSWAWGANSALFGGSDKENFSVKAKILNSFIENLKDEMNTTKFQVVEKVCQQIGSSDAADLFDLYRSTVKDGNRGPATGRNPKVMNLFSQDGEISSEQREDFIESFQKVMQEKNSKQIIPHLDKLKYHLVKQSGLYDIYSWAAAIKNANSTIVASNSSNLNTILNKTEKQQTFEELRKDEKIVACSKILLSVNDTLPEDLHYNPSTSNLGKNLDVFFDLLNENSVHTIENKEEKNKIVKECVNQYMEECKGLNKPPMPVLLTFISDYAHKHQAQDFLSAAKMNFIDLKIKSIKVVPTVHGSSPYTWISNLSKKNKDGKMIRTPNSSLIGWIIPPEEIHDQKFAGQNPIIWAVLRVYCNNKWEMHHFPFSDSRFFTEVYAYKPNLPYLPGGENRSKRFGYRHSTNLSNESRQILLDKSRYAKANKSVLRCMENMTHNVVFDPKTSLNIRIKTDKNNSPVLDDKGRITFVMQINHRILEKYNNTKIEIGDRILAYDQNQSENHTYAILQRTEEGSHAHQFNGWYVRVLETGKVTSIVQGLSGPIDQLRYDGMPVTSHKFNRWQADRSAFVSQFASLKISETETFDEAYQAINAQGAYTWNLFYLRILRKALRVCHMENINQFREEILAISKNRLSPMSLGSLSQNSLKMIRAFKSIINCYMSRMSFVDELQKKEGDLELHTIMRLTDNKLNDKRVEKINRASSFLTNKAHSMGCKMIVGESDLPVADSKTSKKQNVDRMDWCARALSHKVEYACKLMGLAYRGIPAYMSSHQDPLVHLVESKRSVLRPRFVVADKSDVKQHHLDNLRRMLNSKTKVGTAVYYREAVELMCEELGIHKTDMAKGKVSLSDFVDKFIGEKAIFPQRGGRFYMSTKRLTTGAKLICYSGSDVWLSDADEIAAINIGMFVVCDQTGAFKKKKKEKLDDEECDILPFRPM

B1: EMX1_T5 crRNA ; EMX1_T5 target (ssRNA ; dsDNA)
RNA: AUAGUGUGUCCUUAGUUGACAUUAUUAUUCCCAUAGGGAAGG
DNA 1: TATTATTCCCATAGGGAAGG
DNA 2: CCTTCCCTATGGGAATAATA
B2: VEGFA_T2 crRNA ; VEGFA_T2 target (ssRNA ; dsDNA)
RNA: AUAGUGUGUCCUUAGUUGACAUAAUCCUCCACCAGUCAUGGU
DNA 1: AATCCTCCACCAGTCATGGT
DNA 2: ACCATGACTGGTGGAGGATT
B3: AAVS1_T3 crRNA ; AAVS1_T3 target (ssRNA ; dsDNA)
RNA: AUAGUGUGUCCUUAGUUGACAUGUGAGAAUGGUGCGUCCUAG
DNA 1: GTGAGAATGGTGCGTCCTAG
DNA 2: CTAGGACGCACCATTCTCAC

Assays:
[1] = molecular target: T1, Cas12i3 S559R; experiment: cell_activity; fold change in % indels, HEK293T; PAM not stated in example
Procedure, shortened: (§1)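 HEK293T cells lipofected with Lipofectamine 2000 (crRNA omitted in negative controls). Harvested 72 h post-transfection and lysed in QuickExtract. Target loci amplified by two-round PCR and sequenced on NextSeq (150 cycles) to quantify % indels.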

[2] = molecular target: T2, Cas12i3 K583R N711R C724R; experiment: as above
Procedure, shortened: as §1

Row | Binder | binding signal [1] | binding signal [2]
1 | B1 | 0.95 fold of wild-type | 1.99 fold of wild-type
2 | B2 | 1.17 fold of wild-type | 2.57 fold of wild-type
3 | B3 | 1.28 fold of wild-type | 2.96 fold of wild-type
